Read-outs that look alike come from different tables or passages of the source.
What was measured:
[1] = target: Mouse CD28 (ELISA of Example 13) (mouse, UniProt P31041 20-150, limits assumed); assay: ELISA
[2] = target: T1, Human CD28 (ELISAs of Examples 4 and 13) (human, UniProt P10747 19-152, limits assumed); assay: ELISA
[3] = target: T2, Mouse CD28 on cells (mouse, UniProt P31041 20-218); assay: flow cytometry on mouse T cells, median fluorescence intensity; drawn table; set-up: AUC: unit not given beside the values
T2 construct: also called CD28 on mouse T cells
T2 sequence (P31041 20-218 limits assumed): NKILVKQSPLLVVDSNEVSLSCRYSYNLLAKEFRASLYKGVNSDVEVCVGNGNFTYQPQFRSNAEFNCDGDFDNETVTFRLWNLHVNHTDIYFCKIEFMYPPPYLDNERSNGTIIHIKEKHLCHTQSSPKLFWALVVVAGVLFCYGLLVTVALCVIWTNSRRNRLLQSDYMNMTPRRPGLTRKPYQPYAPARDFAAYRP

[4] = target: T1, Human CD28 (ELISAs of Examples 4 and 13); assay: ELISA; remark: listed apart in the source

Mouse CD28 (ELISA of Example 13), sequence (P31041 20-150 limits assumed): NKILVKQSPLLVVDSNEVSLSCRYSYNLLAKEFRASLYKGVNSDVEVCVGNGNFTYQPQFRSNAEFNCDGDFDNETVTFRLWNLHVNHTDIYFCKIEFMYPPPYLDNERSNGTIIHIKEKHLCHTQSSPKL

Row | EC50 [1] | EC50 [2] | AUC [3] | EC50 [3] | Max MFI [3] | EC50 [4] | Binder
1 | 0.0742 µM | 0.00303 µM | 4380 | 0.145 µM | 2710 | – | TY30120 (bispecific antibody, human IgG1, kappa, N297A, anti-B7H3 Fab x CD28 scFv BC10599 (VH-VL)-Fc) light: DIQLTQSPSSLSASVGDRVTITCRASQSIRKYLNWYQQKPGKAPKLLIYAASTLQSGVPSRFSGSGSGTDFTLTISSLQPEDFATYFCSQGTHVPFTFGQGTKVEIKRTVAAPSVFIFPPSDEQLKSGTASVVCLLNNFYPREAKVQWKVDNALQSGNSQESVTEQDSKDSTYSLSSTLTLSKADYEKHKVYACEVTHQGLSSPVTKSFNRGEC heavy: EVQLVESGGGLVQPGGSLRLSCAASGFTFSGYGIHWVRQAPGKGLEWIGWISPSGGDTKYAQKFQGRVTISRDNSKNTLYLQLNSLRAEDTAVYYCARGGTVVYFDYWGQGTLVTVSSASTKGPSVFPLAPSSKSTSGGTAALGCLVKDYFPEPVTVSWNSGALTSGVHTFPAVLQSSGLYSLSSVVTVPSSSLGTQTYICNVNHKPSNTKVDKKVEPKSCDKTHTCPPCPAPELLGGPSVFLFPPKPKDTLMISRTPEVTCVVVDVSHEDPEVKFNWYVDGVEVHNAKTKPREEQYASTYRVVSVLTVLHQDWLNGKEYKCKVSNKALPAPIEKTISKAKGQPREPQVYTLPPSRKKLTKNQVKLTCLVKGFYPSDIAVEWESNGQPENNYKTTPPVLDCDGSFFLYSKLTVDKSRWQQGNVFSCSVMHEALHNHYTQKSLSLSPGK EVQLVESGGGLVQPGGSLRLSCAASGFSLSTSGVGVSWIRQAPGKGLEWIGEIYHSGSTYYSPSLKSRVTISRDNSKNTLYLQLNSLRAEDTAVYYCARYGYYYYDFDYWGQGTLVTVSSGGGGSGGGGSGGGGSGGGGSDIQLTQSPSSLSASVGDRVTITCRASQSVDFHGISFLHWYQQKPGKAPKLLIYAASSLQSGVPSRFSGSGSGTDFTLTISSLQPEDFATYYCQQSYRSPRTFGQGTKVEIKEPKSSDKTHTCPPCPAPELLGGPSVFLFPPKPKDTLMISRTPEVTCVVVDVSHEDPEVKFNWYVDGVEVHNAKTKPREEQYASTYRVVSVLTVLHQDWLNGKEYKCKVSNKALPAPIEKTISKAKGQPREPQVYTDPPSRDELTKNQVSLTCLVDGFYPSDIAVEWESNGQPENCYKTTPPVLDSDGSFFLYSKLTVDKSRWQQGNVFSCSVMHEALHNHYTQDSLSLSPGK
2 | – | – | – | – | – | 0.0223 µM | TY29815 (bispecific antibody, human IgG1, kappa, N297A, also called TY29815 (WT); wild type anti-PD-L1xCD28 bsAb) light: DIQLTQSPSSLSASVGDRVTITCRASQSIPSFLNWYQQKPGKAPKLLIYAASSLQSGVPSRFSGSGSGTDFTLTISSLQPEDFATYYCQHYISWPRQFTFGQGTKVEIKRTVAAPSVFIFPPSDEQLKSGTASVVCLLNNFYPREAKVQWKVDNALQSGNSQESVTEQDSKDSTYSLSSTLTLSKADYEKHKVYACEVTHQGLSSPVTKSFNRGEC heavy: EVQLVESGGGLVQPGGSLRLSCAASGYSISSGYYWGWIRQAPGKGLEWIGIIYPSGGGTNYAQKFQGRVTISRDNSKNTLYLQLNSLRAEDTAVYYCARGGGLGFDYWGQGTLVTVSSASTKGPSVFPLAPSSKSTSGGTAALGCLVKDYFPEPVTVSWNSGALTSGVHTFPAVLQSSGLYSLSSVVTVPSSSLGTQTYICNVNHKPSNTKVDKKVEPKSCDKTHTCPPCPAPELLGGPSVFLFPPKPKDTLMISRTPEVTCVVVDVSHEDPEVKFNWYVDGVEVHNAKTKPREEQYASTYRVVSVLTVLHQDWLNGKEYKCKVSNKALPAPIEKTISKAKGQPREPQVYTLPPSRKKLTKNQVKLTCLVKGFYPSDIAVEWESNGQPENNYKTTPPVLDCDGSFFLYSKLTVDKSRWQQGNVFSCSVMHEALHNHYTQKSLSLSPGK EVQLVESGGGLVQPGGSLRLSCAASGFSLSTGGVGVSWIRQAPGKGLEWIGEIYHSGSTYYSPSLKSRVTISRDNSKNTLYLQLNSLRAEDTAVYYCARYEYYYYDFDYWGQGTLVTVSSGGGGSGGGGSGGGGSGGGGSDIQLTQSPSSLSASVGDRVTITCRASQSVDFHGISFLHWYQQKPGKAPKLLIYAASSLQSGVPSRFSGSGSGTDFTLTISSLQPEDFATYYCQQSYRSPRTFGQGTKVEIKEPKSSDKTHTCPPCPAPELLGGPSVFLFPPKPKDTLMISRTPEVTCVVVDVSHEDPEVKFNWYVDGVEVHNAKTKPREEQYASTYRVVSVLTVLHQDWLNGKEYKCKVSNKALPAPIEKTISKAKGQPREPQVYTDPPSRDELTKNQVSLTCLVDGFYPSDIAVEWESNGQPENCYKTTPPVLDSDGSFFLYSKLTVDKSRWQQGNVFSCSVMHEALHNHYTQDSLSLSPGK
3 | – | – | – | – | – | 0.0268 µM | TY30413 (bispecific antibody, human IgG1, kappa, N297A, anti-PD-L1 Fab x CD28 scFv VH-VL (YYHY)-Fc) light: DIQLTQSPSSLSASVGDRVTITCRASQSIPSFLNWYQQKPGKAPKLLIYAASSLQSGVPSRFSGSGSGTDFTLTISSLQPEDFATYYCQHYISWPRQFTFGQGTKVEIKRTVAAPSVFIFPPSDEQLKSGTASVVCLLNNFYPREAKVQWKVDNALQSGNSQESVTEQDSKDSTYSLSSTLTLSKADYEKHKVYACEVTHQGLSSPVTKSFNRGEC heavy: EVQLVESGGGLVQPGGSLRLSCAASGYSISSGYYWGWIRQAPGKGLEWIGIIYPSGGGTNYAQKFQGRVTISRDNSKNTLYLQLNSLRAEDTAVYYCARGGGLGFDYWGQGTLVTVSSASTKGPSVFPLAPSSKSTSGGTAALGCLVKDYFPEPVTVSWNSGALTSGVHTFPAVLQSSGLYSLSSVVTVPSSSLGTQTYICNVNHKPSNTKVDKKVEPKSCDKTHTCPPCPAPELLGGPSVFLFPPKPKDTLMISRTPEVTCVVVDVSHEDPEVKFNWYVDGVEVHNAKTKPREEQYASTYRVVSVLTVLHQDWLNGKEYKCKVSNKALPAPIEKTISKAKGQPREPQVYTLPPSRKKLTKNQVKLTCLVKGFYPSDIAVEWESNGQPENNYKTTPPVLDCDGSFFLYSKLTVDKSRWQQGNVFSCSVMHEALHNHYTQKSLSLSPGK EVQLVESGGGLVQPGGSLRLSCAASGFSLSTGGVGVSWIRQAPGKGLEWIGEIYHSGSTYYSPSLKSRVTISRDNSKNTLYLQLNSLRAEDTAVYYCARYEYYHYDFDYWGQGTLVTVSSGGGGSGGGGSGGGGSGGGGSDIQLTQSPSSLSASVGDRVTITCRASQSVDFHGISFLHWYQQKPGKAPKLLIYAASSLQSGVPSRFSGSGSGTDFTLTISSLQPEDFATYYCQQSYRSPRTFGQGTKVEIKEPKSSDKTHTCPPCPAPELLGGPSVFLFPPKPKDTLMISRTPEVTCVVVDVSHEDPEVKFNWYVDGVEVHNAKTKPREEQYASTYRVVSVLTVLHQDWLNGKEYKCKVSNKALPAPIEKTISKAKGQPREPQVYTDPPSRDELTKNQVSLTCLVDGFYPSDIAVEWESNGQPENCYKTTPPVLDSDGSFFLYSKLTVDKSRWQQGNVFSCSVMHEALHNHYTQDSLSLSPGK
4 | 0.0964 µM | 0.00359 µM | 3820 | 0.0762 µM | 1980 | – | TY30123 (bispecific antibody, human IgG1, kappa, N297A, anti-B7H3 Fab x CD28 scFv BC10621 (VH-VL)-Fc) light: DIQLTQSPSSLSASVGDRVTITCRASQSIRKYLNWYQQKPGKAPKLLIYAASTLQSGVPSRFSGSGSGTDFTLTISSLQPEDFATYFCSQGTHVPFTFGQGTKVEIKRTVAAPSVFIFPPSDEQLKSGTASVVCLLNNFYPREAKVQWKVDNALQSGNSQESVTEQDSKDSTYSLSSTLTLSKADYEKHKVYACEVTHQGLSSPVTKSFNRGEC heavy: EVQLVESGGGLVQPGGSLRLSCAASGFTFSGYGIHWVRQAPGKGLEWIGWISPSGGDTKYAQKFQGRVTISRDNSKNTLYLQLNSLRAEDTAVYYCARGGTVVYFDYWGQGTLVTVSSASTKGPSVFPLAPSSKSTSGGTAALGCLVKDYFPEPVTVSWNSGALTSGVHTFPAVLQSSGLYSLSSVVTVPSSSLGTQTYICNVNHKPSNTKVDKKVEPKSCDKTHTCPPCPAPELLGGPSVFLFPPKPKDTLMISRTPEVTCVVVDVSHEDPEVKFNWYVDGVEVHNAKTKPREEQYASTYRVVSVLTVLHQDWLNGKEYKCKVSNKALPAPIEKTISKAKGQPREPQVYTLPPSRKKLTKNQVKLTCLVKGFYPSDIAVEWESNGQPENNYKTTPPVLDCDGSFFLYSKLTVDKSRWQQGNVFSCSVMHEALHNHYTQKSLSLSPGK EVQLVESGGGLVQPGGSLRLSCAASGFSLSTGGVGVGWIRQAPGKGLEWIGEIYHSGSTYYSPSLKSRVTISRDNSKNTLYLQLNSLRAEDTAVYYCARYGYYYYDFDYWGQGTLVTVSSGGGGSGGGGSGGGGSGGGGSDIQLTQSPSSLSASVGDRVTITCRASQSVDFHGISFLHWYQQKPGKAPKLLIYAASSLQSGVPSRFSGSGSGTDFTLTISSLQPEDFATYYCQQSYRSPRTFGQGTKVEIKEPKSSDKTHTCPPCPAPELLGGPSVFLFPPKPKDTLMISRTPEVTCVVVDVSHEDPEVKFNWYVDGVEVHNAKTKPREEQYASTYRVVSVLTVLHQDWLNGKEYKCKVSNKALPAPIEKTISKAKGQPREPQVYTDPPSRDELTKNQVSLTCLVDGFYPSDIAVEWESNGQPENCYKTTPPVLDSDGSFFLYSKLTVDKSRWQQGNVFSCSVMHEALHNHYTQDSLSLSPGK
5 | 0.108 µM | 0.00573 µM | 4620 | 0.143 µM | 2860 | – | TY30121 (bispecific antibody, human IgG1, kappa, N297A, anti-B7H3 Fab x CD28 scFv BC10601 (VH-VL)-Fc) light: DIQLTQSPSSLSASVGDRVTITCRASQSIRKYLNWYQQKPGKAPKLLIYAASTLQSGVPSRFSGSGSGTDFTLTISSLQPEDFATYFCSQGTHVPFTFGQGTKVEIKRTVAAPSVFIFPPSDEQLKSGTASVVCLLNNFYPREAKVQWKVDNALQSGNSQESVTEQDSKDSTYSLSSTLTLSKADYEKHKVYACEVTHQGLSSPVTKSFNRGEC heavy: EVQLVESGGGLVQPGGSLRLSCAASGFTFSGYGIHWVRQAPGKGLEWIGWISPSGGDTKYAQKFQGRVTISRDNSKNTLYLQLNSLRAEDTAVYYCARGGTVVYFDYWGQGTLVTVSSASTKGPSVFPLAPSSKSTSGGTAALGCLVKDYFPEPVTVSWNSGALTSGVHTFPAVLQSSGLYSLSSVVTVPSSSLGTQTYICNVNHKPSNTKVDKKVEPKSCDKTHTCPPCPAPELLGGPSVFLFPPKPKDTLMISRTPEVTCVVVDVSHEDPEVKFNWYVDGVEVHNAKTKPREEQYASTYRVVSVLTVLHQDWLNGKEYKCKVSNKALPAPIEKTISKAKGQPREPQVYTLPPSRKKLTKNQVKLTCLVKGFYPSDIAVEWESNGQPENNYKTTPPVLDCDGSFFLYSKLTVDKSRWQQGNVFSCSVMHEALHNHYTQKSLSLSPGK EVQLVESGGGLVQPGGSLRLSCAASGFSLSTSGVGVGWIRQAPGKGLEWIGEIYHSGSTYYNPSLKSRVTISRDNSKNTLYLQLNSLRAEDTAVYYCARYKYDYYDFDYWGQGTLVTVSSGGGGSGGGGSGGGGSGGGGSDIQLTQSPSSLSASVGDRVTITCRASQSVDFHGISFLHWYQQKPGKAPKLLIYAASSLQSGVPSRFSGSGSGTDFTLTISSLQPEDFATYYCQQSYRSPRTFGQGTKVEIKEPKSSDKTHTCPPCPAPELLGGPSVFLFPPKPKDTLMISRTPEVTCVVVDVSHEDPEVKFNWYVDGVEVHNAKTKPREEQYASTYRVVSVLTVLHQDWLNGKEYKCKVSNKALPAPIEKTISKAKGQPREPQVYTDPPSRDELTKNQVSLTCLVDGFYPSDIAVEWESNGQPENCYKTTPPVLDSDGSFFLYSKLTVDKSRWQQGNVFSCSVMHEALHNHYTQDSLSLSPGK
